Tested on: CC[C@]1(O)C[C@@H]2CN(CCc3c([nH]c4ccccc34)[C@@](C(=O)OC)(c3cc4c(cc3OC)N(C)[C@H]3[C@@](O)(C(=O)OC)[C@H](OC(C)=O)[C@]5(CC)C=CCN6CC[C@]43[C@@H]65)C2)C1
Experiment: TP_TRANSPORTER: transepithelial transport (basal to apical) in Caco-2 cells
Format: functional, cell-based

ATP-dependent translocase ABCB1 (Homo sapiens)
Km: 19 µM

Reference: ChEMBL document CHEMBL2074196, “Drug absorption limited by P-glycoprotein-mediated secretory drug transport in human intestinal epithelial Caco-2 cell layers” (Pharm Res, 1993)
